Assay: soluble on expression in E. coli; label from the status in PepcDB or PDB records
With “MGSDKIHHHHHHMKLYVSFAARIRAMIDEGVLRPGDKIFSVRQASQKYGLSISTVLRGYLLLEQEGIISSHPQSGYYVTPRKRLQRHETSPLSKDINLSEVDASKLVLTTLKSIREFGTVPLGSPFPDPQLFPLKKIHQYEKALTDDEGEWGVLSDLPPGNEMLRQQIARRYLANGMDVSPDDIVITHGATEAITLCLQAVAKAGDVIALESPGYYALAHTVERLGMKVAELRTDPDSGIDLDALRATAGNVRIAAVILTANFQNPLGFVMPDAKKQALVAFLEEQQIPLIEDDVYGELYFSETAPKPAKAFDRSGLVLHCASFSKSLAPGYRVGWTVAGRYRQEVERLMFLNSLSMPSAPQIAIAKFMQRDSFERHLKQLRHTLRSQYVLIRNVIEESFPAGTQLSAPKGGYVIWVNLPAPLDALKLYRAAIDNGITVAPGTIFSRKKDLTHYIRLNFSHLWTLAIEQAVRQVGALACGMLADAGNGEA” the “soluble on expression in E. coli” value was “not soluble”.
In the case of “MGKTNLAPGFRFHPTDVELVRYYLKRKVMGKKFQVDAIAEVDIYKFEPPDLPDKSCLGTGDLKWYFFCPREKKYPKGGKANRSTECGYWKTTGRDRDVSYNDEVTGKIRTLIYHYGKIPRGDRTDWVIHEYRLEDKVLAQKNVPQDTYVLCVLFKKNGLGPRHGSQYGAPFKEEDWSDKEEEYTQNHLVAGPSKETSLAAKASHSYAPKDGLTGVISESCVSDVPPLTATVLPPLTSDVIAYNPFSSSPLLEVPQVSLDGGELNSMLDLFSVDNDDCLLFDDFDYHNEVRHPDGFVNKEAPVFLGDGNFSGMFDLSNDQVVELQDLIQSPTPHPPSPPAQASIPDDSRSNGQTKDD”, the “soluble on expression in E. coli” value is reported as “soluble”.
For “MTAISCSPRPRYASRMPVLSKTVEVTADAASIMAIVADIERYPEWNEGVKGAWVLARYDDGRPSQVRLDTAVQGIEGTYIHAVYYPGENQIQTVMQQGELFAKQEQLFSVVATGAASLLTVDMDVQVTMPVPEPMVKMLLNNVLEHLAENLKQRAEQLAAS”, the “soluble on expression in E. coli” value was “soluble”.
With “MGSDKIHHHHHHMQFDPPLQPAILLKRYKRFLADVVTPDGRELTLHCPNTGAMTGCAAPGDTVWYSTSDNAKRKYAHTWELTETQQGAVICVNTLRANSLAKEAISAGIIPELSGYNQLKSEVKYGEENSRIDIMLQADDRQNCYIEVKSVTLAEKEYGYFPDAVTTRGQKHLRELMAVAANGDRAVILFAVLHSAIDRFSPAHHIDARYAQLLTEAQDKGVEILAWKAELSTTRMTLNKPIAVVLNPGK” the “soluble on expression in E. coli” value was “not soluble”.
With “MSLQTPMQTVDDLRSVCDELPHSLETFPFDDETLVFKVGYLSKSRMYALTDITQDPLRLSLKVDPERGEELRQAHPQSIAPGYHLNKKHWVTVTLDGTVPAELLGELLRGSYLLVTKKGFTKAERKELGLPDSLEGGSHHHHHH” the “soluble on expression in E. coli” value was “soluble”.
With “MAKENPFTPFSDWTKHWQQFFQNDFWGSIQPLLPSSNKPSSGMNIYKKDNELLVVISLPGLEKIEDAEVYVSYKTLEVKATINLNFKGFELVEEGLFQGQFQKTIPLPFAVKEDRIEATYHNGLLFIHLHRLIPDEPKKKIVIKKSE” the “soluble on expression in E. coli” value was “not soluble”.
In the case of “MGSSHHHHHHSSGRENLYFQGHMIMIFTSSCCDNLSIDEIIERAEKGDCEAQYIVGFYYNRDSAIDSPDDEKAFYWLKLAAEQGHCEAQYSLGQKYTEDKSRHKDNEQAIFWLKKAALQGHTFASNALGWTLDRGEAPNYKEAVVWYQIAAESGMSYAQNNLGWMYRNGNGVAKDYALAFFWYKQAALQGHSDAQNNLADLYEDGKGVAQNKTLAAFWYLKSAQQGNRHAQFQIAWDYNAGEGVDQDYKQAMYWYLKAAAQGSVGAYVNIGYMYKHGQGVEKDYQAAFEWFTKAAECNDATAWYNLAIMYHYGEGRPVDLRQALDLYRKVQSSGTRDVSQEIRETEDLL”, the “soluble on expression in E. coli” value is reported as “soluble”.
For “MVDQAQDTLRPNNRLSDMQATMEQTQAVENRVLERLNAGKTVRSFLITAVELLTEAVNLLVLQVFRKDDYAVKYAVEPLLDGDGPLGDLSVRLKLIYGLGVINRQEYEDAELLMALREELNHDGNEYAFTDDEILGPFGELHCVAALPPPPQFEPADSSLYAMQIQRYQQAVRSTMVLSLTELISKISLKKAFQK”, the “soluble on expression in E. coli” value was “not soluble”.
With “MAHHHHHHMTDEKKEEWIRRPYTRSIPVKLRSLAQLEESTVDATTQWYELLEQLVTETDVKGILQQTTKRKAARKLEELASQLRAVMQEMTAQSGRVVREGVDTQSFEQFCAWAGSTPSLQTTEASNGCTQMDKLCARVCMLCLCVAVILNDLELLICGMSFAESHKLLETYSRECEQRSVRQSNSIPDSGMEKGKNSEDVVLCSTVAHTLICGNDHNTFVPLADGDVLLACTLLYYLYTQDGPSASKSVMILERVLHCAEEVGYTSDVLDETGGYRIDFFYTISRMANWVETDNCPRLYQRIAHGFHGGSEVLVPFPPFVFLFTQVMLHMVVRRRLVEMQLQNVWRPVVTMDAAPVGCDGTAAETCSHVHPTVSSTSLCSAHGSKFFAVCLMLQRDCLSQYRSWPLPMELQKSFFC” the “soluble on expression in E. coli” value was “not soluble”.
In the case of “MVKLRDWQEKLKDKVIEGLRNNFLVALNAPTGSGKTLFSLLVSLEVKPKVLFVVRTHNEFYPIYRDLTKIREKRNITFSFLVGKPSSCLYAEKGAESEDIPCKYCELKGSIVEVKTDDSPLSLVKKLKKDGLQDKFCPYYSLLNSLYKADVIALTYPYFFIDRYREFIDIDLREYMIVIDEAHNLDKVNELEERSLSEITIQMAIKQSKSEESRRILSKLLNQLREVVLPDEKYIKVENVPKLSKEELEILADDYEDIRKDSLKQGKVNKIHIGSILRFFSLLSIGSFIPFSYSKRLVIKNPEISYYLNLLNDNELSIILMSGTLPPREYMEKVWGIKRNMLYLDVEREIQKRVSGSYECYIGVDVTSKYDMRSDNMWKRYADYLLKIYFQAKANVLVVFPSYEIMDRVMSRISLPKYVESEDSSVEDLYSAISANNKVLIGSVGKGKLAEGIELRNNDRSLISDVVIVGIPYPPPDDYLKILAQRVSLKMNRENEEFLFKIPALVTIKQAIGRAIRDVNDKCNVWLLDKRFESLYWKKNLKCLNANKMKL”, the “soluble on expression in E. coli” value is reported as “soluble”.
With “MSLNPTIQPYQFNIIKEQVAVLLNTYTSVNDATTVKTVQALCAEKINGLFPEEHPAVTILLDKVMDRRLTRARAEKYLDELKETVLPFKEPSTPQVTKVFRKVKKLKIPEWENMDLRNNTYVGWNDAGTQKIFILAYRENKLIGVHGTLSPTIVKGVCSICQTITNVSMFLATTKSGGDGTYTKKGNYICHDSDTCNQQLTQPEYLEAFMENVKAVKEGHHHHHH” the “soluble on expression in E. coli” value was “soluble”.
With “MSNQQALVIFSGGQDSTTCLIQAIQTYGRENVQAITFQYGQRHAVELERARWIAQDLGVKQTVLDLSLMRQITHNALMDDTAAIETAENGVPNTFVDGRNALFLLYAAIYAKGQGIRHIIAGVCETDFSGYPDCRDVFVKSMNVTLNLAMDYDFQIHTPLMYLTKAQTWALADEMGVLDYIREQTHTCYNGIVGGCRECPSCILRERGLAEYLESKKAV” the “soluble on expression in E. coli” value was “not soluble”.
With “MGSDKIHHHHHHMSDIIDEVISSFKTSSIFINREYLLPDYIPDELPHREDQIRKIASILAPLYREEKPNNIFIYGLTGTGKTAVVKFVLSKLHKKFLGKFKHVYINTRQIDTPYRVLADLLESLDVKVPFTGLSIAELYRRLVKAVRDYGSQVVIVLDEIDAFVKKYNDDILYKLSRINSEVNKSKISFIGITNDVKFVDLLDPRVKSSLSEEEIIFPPYNAEELEDILTKRAQMAFKPGVLPDNVIKLCAALAAREHGDARRALDLLRVSGEIAERMKDTKVKEEYVYMAKEEIERDRVRDIILTLPFHSKLVLMAVVSISSEENVVSTTGAVYETYLNICKKLGVEAVTQRRVSDIINELDMVGILTAKVVNRGRYGKTKEIGLAVDKNIIVRSLIESDSRFADLWS” the “soluble on expression in E. coli” value was “not soluble”.
For “MGSDKIHHHHHHMLSSAEKVKGQGVASAYRELVNLLEERYKNEIDMKINSFEKSDITHYHTVDFRFFLSTFFKKKRGVRVGYVHFLPETMEGSLKLPWIARVVFYKYLIGFYKRMDEIVVVNPSFIPKLTAYNIPAEKIHYIPNFVSKKSFFPISKGEKELARAKYEIPADKFTVIGIGQVQHRKGVLDFIEVAKQLPDVQFVWAGGFSFGKITSGYEELKKIYDNPPSNVKFIGIVDRSEMNSCINMADVFFMPSYNELFPMAILEAMSCDVPILLRNLDLYEEILDGYYVKEVDNPGFIRAIERLENDTNYYNEMLQASKRGAAYYSEDRLAEIWLDFYQGLLTKE”, the “soluble on expression in E. coli” value was “not soluble”.
In the case of “MGSDKIHHHHHHMITESRQMLDKRNRPLRDLRISVTDRCNFRCTYCMPAELFGPDYPFLKKEELLSFEELERLATLFVTRFGVEKIRLTGGEPLMRKDMPELIKKLARIPGIRDIAMTTNGSLLPVYAKRLKEAGLKRVTISLDSLEDERFKKINGRGVSVSKVLEGIEAAKQAGLGVKINMVVQKGVNEKDILPMARYFKEKGHILRFIEFMDVGNTNQWEKKDVMTKAEIIDLINKHMPVEPIAPNYIGEVASRFRYLDGSGEIGVISSVSDAFCGSCNRARLSARGELFTCLFASSGFDLRAPVRQELSDDELSEMIGTVWKNRIDQYSVDRTLSKASGKKKVEMSYIGG”, the “soluble on expression in E. coli” value is reported as “not soluble”.
With “MTTLPPPATELSADEARRLALRAQGFLGAPDRRAGVRGVLRHLGAVQLDTISVLARSHELIPYARLGAVGRRTVDDAYWTDTHAFEYWSHAACILPIEEWPHFAFRRRAYRNRPHWNHHLPEGDYDRVVKQLREEGPLTATDLGGAKRTSEWWDWSGTKVAVERALMYGEVVCVERRGWKRVYDLAERAVPAALLHDDLDDTECLRRLVRLAGQSLGVGTRADIADYHRLKAEQVDAVIADSGLVPVTVAGWGRPAWADPAALETVPRGRHRTTLLSPFDSLIWERARTERIFGFTHRLEAYVPRQKRVHGYFAMPVLAGGRLVGRVDPAREGRTLVAKQVTLDGPKAAPAVAQALVEAAGWVDCTNVRVERVETPDLREPLARELARLLDLEHHHHHH” the “soluble on expression in E. coli” value was “not soluble”.
For “MTDKQYSLDDIRLRLNELDDQLLNLLSERRKMSIEVAKSKVETAKPVRDPAREQQLLVKLINAGKEKYQLDPQYITKIFHTIIEDSVLLQQSYLQNLANPQSRKPLARVAFLGAKGSYSHLATREYFSRKNTELIELNCDHFKEVARTVESGHADYGVLPIENTSSGSINEVYDLLQHTTLYIVGELTQPIEHCLVATQEIRLEDLKVLYSHPQPHQQCSEFLSRLKGVKLESCASTADAMKKVQELNRADVAAIGNSASGKLYGLQPIQGNIANQTENHTRFIVVARKPVDVSPQIPAKTTLIMSTSQEAGSLVSTLLVLQRYGINMTKLESRPIMGNPWEEMFYVDLEAHIDSDEMQQALAELTQLTRHLKVLGCYPSENVKPTQVKFI”, the “soluble on expression in E. coli” value was “not soluble”.
In the case of “MVVKFTKSEALHKEALEHIVGGVNSPSRSFKAVGGGAPIAMERGKGAYFWDVDGNKYIDYLAAYGPIITGHAHPHITKAITTAAENGVLYGTPTALEVKFAKMLKEAMPALDKVRFVNSGTEAVMTTIRVARAYTGRTKIMKFAGCYHGHSDLVLVAAGSGPSTLGTPDSAGVPQSIAQEVITVPFNNVETLKEALDKWGHEVAAILVEPIVGNFGIVEPKPGFLEKVNELVHEAGALVIYDEVITAFRFMYGGAQDLLGVTPDLTALGKVIGGGLPIGAYGGKKEIMEQVAPLGPAYQAGTMAGNPASMASGIACLEVLQQEGLYEKLDELGATLEKGILEQAAKHNIDITLNRLKGALTVYFTTNTIEDYDAAQDTDGEMFGKFFKLMLQEGVNLAPSKYEAWFLTTEHTKEDIEYTIEAVGRAFAALADNK”, the “soluble on expression in E. coli” value is reported as “soluble”.
For “MGSDKIHHHHHHMKLIATDMDGTLLNDERKISKENAEAIKAAQQDGIHVVVATGRDFKEASMPLKEAGLTCPILCVNGAEERSANGELIHAVSLAKNEALTILDILTAADVYFEVYTNRGAFTDDYEKGLEIVIDVLQSAGSDDSYEKMREIAKHRFESGAVQLTEDYTKLIDSTAVYKFLAFSRDETKRQAAKDDLEKKDVFSVSASASDNLEITHWQAQKGIALRRLAERLGINSDDVMAIGDNLNDVSMLKYAGTAVAMENGEAEVKQLADFVTASNEDNGVAKAINKWLK”, the “soluble on expression in E. coli” value was “not soluble”.

Source: the DeepSol protein solubility set
